B1: Twister Ribozyme (parent)
chain: AACACUGCCAAUGCCGGUCCCAAGCCCGGAUAAAAGUGGAGGGGGCGG

Variants of: B1
Assay: self-cleavage, relative activity (ratio to wild type); higher = more cleavage; co-transcriptional

Q: Which self-cleavage does the source give for C14G C46G here?
A: Its self-cleavage is 0.101.

Q: Which self-cleavage does the source give for C14G C46U here?
A: Its self-cleavage is 0.175.

Q: With G13C G45U as the variant, how does the self-cleavage read?
A: The self-cleavage was 0.144.

Q: With C14A C26G as the variant, how does the self-cleavage read?
A: The self-cleavage was 0.118.

Q: With C14U A33U as the variant, how does the self-cleavage read?
A: Its self-cleavage is 1.07.

Q: Which self-cleavage does the source give for G13U C20G here?
A: The self-cleavage was 0.1.

Q: Which self-cleavage does the source give for G13U C20A here?
A: The self-cleavage was 0.0934.

Q: Which self-cleavage does the source give for C14U U37A here?
A: Its self-cleavage is 0.83.

Q: For C14U U37G, which self-cleavage is on record?
A: The self-cleavage was 0.845.

Q: With C14U C27G as the variant, how does the self-cleavage read?
A: Its self-cleavage is 0.108.

Q: For C14A G48A, which self-cleavage is on record?
A: The self-cleavage was 0.868.

Q: For C14A G48U, which self-cleavage is on record?
A: Its self-cleavage is 0.887.

Q: Which self-cleavage does the source give for C15G C25A here?
A: The self-cleavage was 0.0585.

Q: With C15G C25U as the variant, how does the self-cleavage read?
A: Its self-cleavage is 0.165.

Q: For C15G C25G, which self-cleavage is on record?
A: The self-cleavage was 0.0786.

Q: Which self-cleavage does the source give for G13U A35U here?
A: Its self-cleavage is 0.696.

Q: With G13U A35C as the variant, how does the self-cleavage read?
A: Its self-cleavage is 0.587.

Q: With C15G A40G as the variant, how does the self-cleavage read?
A: Its self-cleavage is 0.114.

Q: Which self-cleavage does the source give for C15G A40C here?
A: The self-cleavage was 0.0616.

Q: With C15A A35U as the variant, how does the self-cleavage read?
A: Its self-cleavage is 0.774.

Q: With C15A A35C as the variant, how does the self-cleavage read?
A: Its self-cleavage is 0.546.

Q: With C15A A35G as the variant, how does the self-cleavage read?
A: Its self-cleavage is 0.285.

Q: With G13U G28A as the variant, how does the self-cleavage read?
A: The self-cleavage was 0.543.

Q: With G13U G28U as the variant, how does the self-cleavage read?
A: The self-cleavage was 0.466.

Q: Which self-cleavage does the source give for C14A C15A here?
A: Its self-cleavage is 0.885.

Q: For C14A C15G, which self-cleavage is on record?
A: Its self-cleavage is 0.31.

Q: For C14A C15U, which self-cleavage is on record?
A: Its self-cleavage is 0.746.

Q: With C15G U31G as the variant, how does the self-cleavage read?
A: The self-cleavage was 0.153.

Q: For C15G U31C, which self-cleavage is on record?
A: The self-cleavage was 0.108.

Q: For C14G G43U, which self-cleavage is on record?
A: Its self-cleavage is 0.08.

Q: For C14G G43C, which self-cleavage is on record?
A: The self-cleavage was 0.0465.

Q: Which self-cleavage does the source give for C14A G45U here?
A: The self-cleavage was 0.698.

Q: Which self-cleavage does the source give for C14G C15U here?
A: The self-cleavage was 0.401.

Q: Which self-cleavage does the source give for G13U C25G here?
A: The self-cleavage was 0.0724.

Q: For C14G G48U, which self-cleavage is on record?
A: The self-cleavage was 0.128.

Q: For C14G G41U, which self-cleavage is on record?
A: Its self-cleavage is 0.111.

Q: For C14G G41C, which self-cleavage is on record?
A: Its self-cleavage is 0.0824.

Q: With C14A G47C as the variant, how does the self-cleavage read?
A: The self-cleavage was 0.44.

Q: With G13C C27A as the variant, how does the self-cleavage read?
A: The self-cleavage was 0.0712.

Q: With G13C C27U as the variant, how does the self-cleavage read?
A: Its self-cleavage is 0.0915.

Q: For C15G C27G, which self-cleavage is on record?
A: Its self-cleavage is 0.0738.

Q: Which self-cleavage does the source give for C15G C27A here?
A: The self-cleavage was 0.198.

Q: Which self-cleavage does the source give for C15G C27U here?
A: The self-cleavage was 0.094.

Q: With C15A G39A as the variant, how does the self-cleavage read?
A: Its self-cleavage is 0.156.

Q: With G13U A30G as the variant, how does the self-cleavage read?
A: The self-cleavage was 0.926.

Q: For G13U A30C, which self-cleavage is on record?
A: Its self-cleavage is 0.665.

Q: Which self-cleavage does the source give for G13U A22C here?
A: Its self-cleavage is 0.708.

Q: Which self-cleavage does the source give for C14G C25A here?
A: Its self-cleavage is 0.0733.

Q: For C14U G43U, which self-cleavage is on record?
A: Its self-cleavage is 0.526.

Q: Which self-cleavage does the source give for C14U G43A here?
A: Its self-cleavage is 0.369.

Q: With C14U G43C as the variant, how does the self-cleavage read?
A: The self-cleavage was 0.227.

Q: Which self-cleavage does the source give for C14U A30C here?
A: The self-cleavage was 1.08.

Q: For C14U A30U, which self-cleavage is on record?
A: Its self-cleavage is 1.06.

Q: Which self-cleavage does the source give for C14A C46U here?
A: The self-cleavage was 0.827.

Q: With C14A C46A as the variant, how does the self-cleavage read?
A: Its self-cleavage is 0.773.

Q: For C15A G28A, which self-cleavage is on record?
A: Its self-cleavage is 0.865.

Q: With G13U U18G as the variant, how does the self-cleavage read?
A: Its self-cleavage is 0.0548.

Q: Which self-cleavage does the source give for G13U U18C here?
A: The self-cleavage was 0.0744.

Q: Which self-cleavage does the source give for G13U U18A here?
A: The self-cleavage was 0.0935.

Q: Which self-cleavage does the source give for G13U G36A here?
A: The self-cleavage was 0.13.

Q: Which self-cleavage does the source give for G13U G36C here?
A: The self-cleavage was 0.0949.

Q: With G13C C46G as the variant, how does the self-cleavage read?
A: The self-cleavage was 0.268.

Q: Which self-cleavage does the source give for G13C C46U here?
A: The self-cleavage was 0.485.

Q: With G13C C46A as the variant, how does the self-cleavage read?
A: Its self-cleavage is 0.232.

Q: With C15G C21U as the variant, how does the self-cleavage read?
A: Its self-cleavage is 0.0717.

Q: With C15G C21G as the variant, how does the self-cleavage read?
A: Its self-cleavage is 0.0959.

Q: With C15G C21A as the variant, how does the self-cleavage read?
A: The self-cleavage was 0.077.

Q: With C14A U37C as the variant, how does the self-cleavage read?
A: The self-cleavage was 0.619.

Q: Which self-cleavage does the source give for C14A U37G here?
A: The self-cleavage was 0.725.

Q: With C15G G36A as the variant, how does the self-cleavage read?
A: Its self-cleavage is 0.0815.

Q: Which self-cleavage does the source give for C15G A35U here?
A: Its self-cleavage is 0.0985.

Q: For C14G G29C, which self-cleavage is on record?
A: Its self-cleavage is 0.228.

Q: Which self-cleavage does the source give for C14G G29U here?
A: Its self-cleavage is 0.192.

Q: Which self-cleavage does the source give for C15A G47C here?
A: Its self-cleavage is 0.253.

Q: For C15A G47U, which self-cleavage is on record?
A: Its self-cleavage is 0.332.

Q: With C15A A33G as the variant, how does the self-cleavage read?
A: The self-cleavage was 0.578.

Q: With C15A A33U as the variant, how does the self-cleavage read?
A: The self-cleavage was 0.541.

Q: With C15G A32U as the variant, how does the self-cleavage read?
A: The self-cleavage was 0.0633.

Q: Which self-cleavage does the source give for C15G A32G here?
A: The self-cleavage was 0.0996.

Q: With G13C U18C as the variant, how does the self-cleavage read?
A: Its self-cleavage is 0.0885.

Q: For C14A A22G, which self-cleavage is on record?
A: The self-cleavage was 0.407.

Q: With C14A A22C as the variant, how does the self-cleavage read?
A: The self-cleavage was 1.09.

Q: Which self-cleavage does the source give for C14A A22U here?
A: The self-cleavage was 0.657.

From the RNAGym collection of RNA variant scans (doi:10.7554/elife.80360)
